Article PMC10979003 (Nature Communications, 2024)
No end group written: not given here. *: point of attachment. Biotin = O=C1N[C@H]2[C@H](CS[C@H]2CCCCC(=O)*)N1

Molecular target: T1, 6xHis tagged BCL-xL (UniProt Q07817-1 2-212)
T1 construct: BCL-xL; The cloning section gives BCL-xL only an N-terminal ULP1-cleavable SMT3 tag; also called self-made 6×His tagged BCL-xL; WT BCL-xL; source: self-made; E. coli BL21 (DE3) codon plus
Assay: AlphaScreen or HTRF; AlphaScreen displacement binding assay: Biotin-Bim or Biotin-Bad (15 nM for WT, 50 nM for mutants), 6xHis BCL-2 (25 nM WT, 50 nM mutants) or BCL-xL (10 nM WT, 50 nM mutants), compounds (753b, WH244) as displacers; anti-6xHis acceptor and streptavidin donor beads; 25 mM HEPES pH 7.5, 150 mM NaCl, 0.1% BSA, 0.005% tween 20; room temperature
Details: both partners purified

T1 sequence (Q07817 2-212): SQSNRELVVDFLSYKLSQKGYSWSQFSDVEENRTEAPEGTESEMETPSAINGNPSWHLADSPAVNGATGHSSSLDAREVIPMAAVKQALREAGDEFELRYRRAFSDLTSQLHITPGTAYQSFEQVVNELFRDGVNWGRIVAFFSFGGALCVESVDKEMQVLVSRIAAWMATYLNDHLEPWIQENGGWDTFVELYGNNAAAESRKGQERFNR

B1: Biotin-tagged Bad (peptide)
peptide: Biotin-LWAAQRYGRELRRMSDEFEGSFKGL
notes: Bad peptide (BH3 stretch); also called Biotin-[residues removed]
B1: binds.
